Measurements from patent US20150110766A1 (UNIVERSITY ULM, published 2015).

Key:
C3dg = target: T1, C3dg (UniProt P01024 955-1303); assay: SPR (Biacore 2000), analyte over C3dg surface on CM5 chip
T1 construct: Made on the chip from deposited C3b with FI and the cofactor sCR1
Protocol: (§1) C3-fragment binding. Equal amounts of C3b (˜4000 RUs) (from Complement Technology, Tyler, Tex., USA) were immobilized onto 3 flow-cells (fc) of a CM5 chip (Biacore) by initial amine-coupling of a small amount of C3b onto fc 2-4 and further deposition of the vast majority of C3b molecules via its reactive thioester through an on-chip assembly of the AP-convertase (C3bBb) and subsequent exposure to and proteolytic activation of C3 (24). The surface was washed overnight with a buffer flow of 10 ul/min to allow stabilization of the physiologically prepared C3b-surface. […] C3b molecules on fc3 and fc4 were processed with FI in the presence of the cofactors FH or soluble complement receptor 1 (sCR1) to yield iC3b or C3dg (the latter as described in Morgan et al., 2011, supra), respectively. A dummy surface (fc1) was prepared by two consecutive cycles of surface activation with standard amine coupling reagents and quenching by ethanolamine.
(§2) Due to the physiological deposition of C3b and subsequent trimming with FI, both, the iC3b and the C3dg, surfaces likely carry miniscule amounts of residual C3b molecules, which were not readily accessible by FI. […] Deposition, proteolytic processing and all interactions studies were performed in HBS-P+buffer (i.e. 10 mM HEPES-buffered 150 mM saline (pH7.4), 0.005% (v/v) surfactant p20, 1 mM MgCl₂) at 25° C.

C3b = target: T2, C3b (UniProt P01024 749-1663; P01024 23-667); assay: SPR (Biacore 2000), analyte over C3b deposited on CM5 chip
T2 construct: Immobilised on a CM5 chip; A small amount was amine-coupled and the majority deposited via the reactive thioester by on-chip AP convertase; also called complement fragment C3b; deposited C3b
T2 sequence (P01024 749-1663 limits assumed, chain 1 of 2): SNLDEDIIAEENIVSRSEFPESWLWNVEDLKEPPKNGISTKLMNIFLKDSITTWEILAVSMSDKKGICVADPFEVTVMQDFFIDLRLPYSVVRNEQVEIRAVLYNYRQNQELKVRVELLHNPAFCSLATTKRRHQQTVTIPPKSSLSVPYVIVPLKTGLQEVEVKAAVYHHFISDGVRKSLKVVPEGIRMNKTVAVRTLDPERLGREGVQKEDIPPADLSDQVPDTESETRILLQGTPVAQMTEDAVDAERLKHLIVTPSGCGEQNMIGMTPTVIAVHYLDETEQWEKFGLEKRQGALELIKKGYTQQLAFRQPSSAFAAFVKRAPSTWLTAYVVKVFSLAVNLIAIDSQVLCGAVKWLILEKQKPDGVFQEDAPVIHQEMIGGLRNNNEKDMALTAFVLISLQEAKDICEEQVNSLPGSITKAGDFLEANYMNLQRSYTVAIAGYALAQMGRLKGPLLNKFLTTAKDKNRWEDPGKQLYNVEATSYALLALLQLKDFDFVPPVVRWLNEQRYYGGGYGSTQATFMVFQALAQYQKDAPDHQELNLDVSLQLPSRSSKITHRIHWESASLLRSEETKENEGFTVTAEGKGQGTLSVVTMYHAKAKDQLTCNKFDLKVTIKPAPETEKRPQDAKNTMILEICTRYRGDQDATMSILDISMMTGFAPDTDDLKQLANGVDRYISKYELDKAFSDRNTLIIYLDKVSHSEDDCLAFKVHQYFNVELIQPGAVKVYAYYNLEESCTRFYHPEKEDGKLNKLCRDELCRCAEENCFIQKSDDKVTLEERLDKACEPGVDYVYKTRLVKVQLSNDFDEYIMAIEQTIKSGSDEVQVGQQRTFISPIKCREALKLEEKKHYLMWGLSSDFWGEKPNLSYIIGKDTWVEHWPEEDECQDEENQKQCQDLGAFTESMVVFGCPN
T2 sequence (P01024 23-667 limits assumed, chain 2 of 2): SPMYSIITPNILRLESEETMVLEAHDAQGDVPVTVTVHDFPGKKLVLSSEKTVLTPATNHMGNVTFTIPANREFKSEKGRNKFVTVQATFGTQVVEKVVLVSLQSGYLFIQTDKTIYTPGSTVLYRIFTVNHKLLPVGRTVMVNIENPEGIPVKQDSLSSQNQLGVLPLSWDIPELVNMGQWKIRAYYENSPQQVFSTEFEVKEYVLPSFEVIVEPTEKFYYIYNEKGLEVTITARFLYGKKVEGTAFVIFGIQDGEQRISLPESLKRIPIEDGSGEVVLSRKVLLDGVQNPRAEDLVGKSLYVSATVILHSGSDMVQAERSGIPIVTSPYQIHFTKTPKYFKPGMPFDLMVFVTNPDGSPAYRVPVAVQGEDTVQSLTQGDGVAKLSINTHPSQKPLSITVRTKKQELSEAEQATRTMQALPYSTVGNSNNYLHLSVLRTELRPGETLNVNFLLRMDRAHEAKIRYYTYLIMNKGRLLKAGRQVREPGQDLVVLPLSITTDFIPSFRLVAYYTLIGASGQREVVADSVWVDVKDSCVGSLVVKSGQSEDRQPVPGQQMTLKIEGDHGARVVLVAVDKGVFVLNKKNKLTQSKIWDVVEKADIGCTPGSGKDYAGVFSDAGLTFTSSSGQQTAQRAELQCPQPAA
Protocol: as §1, §2

iC3b = target: T3, iC3b (UniProt P01024 23-667; P01024 749-1303; P01024 1321-1663); assay: SPR (Biacore 2000), analyte over iC3b surface on CM5 chip
T3 construct: Made on the chip from deposited C3b with FI and the cofactor FH
T3 sequence (P01024 23-667, chain 1 of 3): as the sequence (P01024 23-667 limits assumed, chain 2 of 2) above
T3 sequence (P01024 749-1303, chain 2 of 3): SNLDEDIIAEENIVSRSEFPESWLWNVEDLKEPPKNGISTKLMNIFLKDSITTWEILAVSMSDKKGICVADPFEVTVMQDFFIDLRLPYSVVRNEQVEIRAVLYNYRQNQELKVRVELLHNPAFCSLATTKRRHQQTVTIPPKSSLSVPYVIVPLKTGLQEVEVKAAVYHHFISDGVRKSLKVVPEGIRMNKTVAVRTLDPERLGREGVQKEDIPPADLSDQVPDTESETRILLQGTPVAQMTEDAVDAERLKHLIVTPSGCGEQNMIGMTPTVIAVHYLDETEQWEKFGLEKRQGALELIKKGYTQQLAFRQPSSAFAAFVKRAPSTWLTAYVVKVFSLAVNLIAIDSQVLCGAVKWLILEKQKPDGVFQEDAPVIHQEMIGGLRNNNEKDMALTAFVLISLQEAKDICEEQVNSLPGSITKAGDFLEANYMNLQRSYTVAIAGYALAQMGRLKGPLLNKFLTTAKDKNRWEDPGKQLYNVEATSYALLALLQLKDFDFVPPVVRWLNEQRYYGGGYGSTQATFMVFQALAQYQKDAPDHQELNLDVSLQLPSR
T3 sequence (P01024 1321-1663, chain 3 of 3): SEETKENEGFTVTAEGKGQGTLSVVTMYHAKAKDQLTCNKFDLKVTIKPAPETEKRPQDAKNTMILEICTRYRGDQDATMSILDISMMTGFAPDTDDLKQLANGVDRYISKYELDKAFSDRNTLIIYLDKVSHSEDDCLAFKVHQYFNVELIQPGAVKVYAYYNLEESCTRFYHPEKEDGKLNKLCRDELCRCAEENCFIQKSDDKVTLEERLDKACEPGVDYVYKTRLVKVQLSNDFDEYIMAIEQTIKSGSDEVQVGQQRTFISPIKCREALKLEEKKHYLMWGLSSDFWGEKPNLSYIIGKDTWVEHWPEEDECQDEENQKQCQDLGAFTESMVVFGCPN
Protocol: as §1, §2

Measured: binding result

T1 sequence (P01024 955-1303 limits assumed): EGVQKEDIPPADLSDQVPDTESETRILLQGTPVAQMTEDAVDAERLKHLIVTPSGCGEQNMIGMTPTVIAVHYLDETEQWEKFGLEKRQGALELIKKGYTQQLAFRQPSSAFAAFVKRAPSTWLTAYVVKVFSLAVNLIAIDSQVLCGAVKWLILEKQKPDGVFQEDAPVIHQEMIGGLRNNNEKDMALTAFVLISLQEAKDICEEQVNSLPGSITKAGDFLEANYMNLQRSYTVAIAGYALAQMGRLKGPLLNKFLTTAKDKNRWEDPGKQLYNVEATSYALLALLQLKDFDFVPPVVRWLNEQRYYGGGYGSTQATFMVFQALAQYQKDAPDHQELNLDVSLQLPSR

B1: FH15-18 (other, UniProt P08603 868-1104, looked up)
chain: IPCSQPPQIEHGTINSSRSSQESYAHGTKLSYTCEGGFRISEENETTCYMGKWSSPPQCEGLPCKSPPEISHGVVAHMSDSYQYGEEVTYKCFEGFGIDGPAIAKCLGEKWSHPPSCIKTDCLSLPSFENAIPMGEKKDVYKAGEQVTYTCATYYKMDGASNVTCINSRWTGRPTCRDTSCVNPPTVQNAYIVSRQMSKYPSGERVRYQCRSPYEMFGDEEVMCLNGNWTEPPQCKD
notes: domain: CCPs 15-18; Negative control analyte in SPR
no binding: C3dg | C3b | iC3b
